In the supplement of paper PMC9732359:
± gives the uncertainty stated by the source.

Assay: protein stability index of a GFP-peptide fusion (yeast GPS) (PSI 1-4); higher = more stable; sorted into four equal gates, so the index is relative within each strain
Method in brief: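 The protein stability index combines read frequencies across sorting gates, each weighted by its gate number and then summed. To obtain those frequencies, a pooled yeast library of GFP fusions to tiled 17-residue yeast protein peptides, on a plasmid also expressing Cherry, was grown to mid-log phase in leucine-free medium. The cells were sorted into four equal gates by GFP/Cherry ratio before plasmid amplification by PCR and Illumina sequencing.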

Row | Sequence | protein stability index (doa10∆) | protein stability index (pdr5∆) | protein stability index (ubr1∆) | protein stability index (san1∆)
1 | NFILEVFGTIIPKISDY [YJL039C/NUP192] | 2.05 ± 0.17 | 1.68 ± 0.22 | 1.61 ± 0.26 | 
2 | YSENGKHDSLRYRLLSD [RPN1] | 2.5 ± 0.073 | 2.49 ± 0.075 | 2.49 ± 0.1 | 2.51 ± 0.1
3 | KETTIEKLSSEIENLDK [YIL149C/MLP2] | 2.94 ± 0.068 | 2.89 ± 0.071 | 3.15 ± 0.056 | 2.9 ± 0.063
4 | DDDNSNVDYYNVAHRIK [SNF2] | 3.31 ± 0.048 | 3.15 ± 0.044 | 3.23 ± 0.038 | 3.06 ± 0.031
5 | DDDDNNESSSNTTVISD [DIS3] | 3.01 ± 0.077 | 3.24 ± 0.081 | 2.91 ± 0.05 | 2.97 ± 0.049
6 | ELLAYQFASPVRWIETQ [FAS2] | 1.77 ± 0.021 | 1.86 ± 0.019 | 1.728 ± 0.016 | 1.92 ± 0.027
7 | DSRKNREQSSNDSETHT [BRN1] | 3.68 ± 0.17 | 3.34 ± 0.19 | 3.52 ± 0.14 | 3.34 ± 0.11
8 | SVDLEKLAFGLTKLNED [TAF14] | 3.54 ± 0.19 | 3.45 ± 0.17 | 3.61 ± 0.12 | 3.6 ± 0.092
9 | RSRYRREIDALKKQLHV [YIL149C/MLP2] | 3.24 ± 0.074 | 3.16 ± 0.05 | 3.2 ± 0.036 | 3.23 ± 0.045
10 | SRNFSTRDEETTKLAFL [SIR4] | 3.04 ± 0.065 | 3.09 ± 0.055 | 2.97 ± 0.038 | 3.03 ± 0.04
11 | NNTNTDNVSGLTRNAPL [SNF2] | 3.06 ± 0.069 | 3.35 ± 0.049 | 3.16 ± 0.037 | 3.05 ± 0.039
12 | KLQFETDRLSTTQRRYE [SMC1] | 3.13 ± 0.094 | 3.3 ± 0.058 | 3.12 ± 0.083 | 3.12 ± 0.086
13 | LIIDGFKSYATRTVITD [SMC2] | 2.82 ± 0.11 | 3.21 ± 0.09 | 3.12 ± 0.083 | 2.99 ± 0.071
14 | QFYVKRWKRFTIGAIFL [CDC53] | 2.81 ± 0.076 | 2.94 ± 0.093 | 2.04 ± 0.055 | 3.08 ± 0.099
15 | RPPNGIKNFKSLLLSSS [SSN2] | 1.51 ± 0.047 | 1.53 ± 0.047 | 1.48 ± 0.037 | 1.83 ± 0.12
16 | SDNSEEEEVDIDMDKLN [RRP43] | 3.25 ± 0.069 | 3.25 ± 0.071 | 3.11 ± 0.05 | 3.4 ± 0.077
17 | QDGVLLVALSNEPAARL [FAS2] | 1.89 ± 0.063 | 1.9 ± 0.06 | 1.46 ± 0.071 | 2.68 ± 0.09
18 | IVFDICQILDGELDVLQ [PRP8] | 2.7 ± 0.11 | 2.63 ± 0.11 | 3.07 ± 0.11 | 2.39 ± 0.1
19 | LLVLLQDVIKVLYQSNA [SWP82] | 1.84 ± 0.074 | 2.03 ± 0.084 | 1.7 ± 0.054 | 1.72 ± 0.12
20 | ARNVTFDSLRNFIVHSP [GRR1] | 2.14 ± 0.063 | 2.35 ± 0.057 | 1.94 ± 0.041 | 2.25 ± 0.08
21 | FLMGIFNSVVNLSRYPK [MTR3] | 2.6 ± 0.091 | 2.5 ± 0.089 | 2.32 ± 0.13 | 2.49 ± 0.13
22 | MSGSFWTSTQRHHWQYT [SSN8] | 2.07 ± 0.14 | 2.27 ± 0.15 | 2.23 ± 0.099 | 1.97 ± 0.13
23 | SNEIKVTNDLDTSAEKD [SIR4] | 3.29 ± 0.095 | 3.35 ± 0.062 | 3.04 ± 0.055 | 3.26 ± 0.055
24 | RQSSDESDNYRLLPNGS [YML031W/NDC1] | 3.03 ± 0.06 | 2.97 ± 0.06 | 3.05 ± 0.054 | 3.13 ± 0.078
25 | LLIRKLPFQRLVREIAQ [HHT1] | 1.29 ± 0.085 | 1.48 ± 0.094 | 1.73 ± 0.097 | 1.44 ± 0.16
26 | ILINTARIHAQNYLKTY [PRE9] | 2.01 ± 0.085 | 1.78 ± 0.073 | 1.89 ± 0.06 | 2.55 ± 0.17

Row | Sequence | protein stability index (doa10∆) | protein stability index (pdr5∆) | protein stability index (ubr1∆) | protein stability index (san1∆)
27 | VEDDLVTVQTELNEEKK [SMC2] | 3.23 ± 0.16 | 2.55 ± 0.078 | 2.85 ± 0.087 | 2.55 ± 0.08
28 | ANTGGQDKIELSEEETL [SNF2] | 2.62 ± 0.12 | 2.8 ± 0.25 | 2.94 ± 0.12 | 3.08 ± 0.063
29 | STTMDGANDLGFTASVS [MED1] | 3.08 ± 0.092 | 3.1 ± 0.061 | 2.99 ± 0.081 | 3.07 ± 0.072
30 | AFEAELSNIPLLLITHH [ARP9] | 1.49 ± 0.071 | 1.68 ± 0.072 | 1.58 ± 0.066 | 1.64 ± 0.089
31 | GRAGVPMEVMGLMLGEF [RPN11] | 1.25 ± 0.17 | 2.12 ± 0.26 |  | 1.69 ± 0.18
32 | ATPQEAQFYLGKRIAYV [RPL33B] | 1.64 ± 0.11 | 2.2 ± 0.068 | 2.43 ± 0.077 | 1.76 ± 0.076
33 | NIKNTNEEATPIPSSET [RRP6] | 2.61 ± 0.049 | 2.98 ± 0.052 | 2.67 ± 0.056 | 2.44 ± 0.048
34 | RGFGKINKQRVPLSDNA [RPL7A] | 3.03 ± 0.091 | 3.5 ± 0.11 | 2.91 ± 0.066 | 3.29 ± 0.094
35 | CVYVPNFNASLQLTTNT [SNM1] | 2.06 ± 0.038 | 2.71 ± 0.047 | 2.02 ± 0.065 | 2.52 ± 0.047
36 | TITKRNGAFQNSSNLSY [RRP4] | 3.04 ± 0.054 | 3.02 ± 0.057 | 3.11 ± 0.042 | 3.1 ± 0.04
37 | SPVELSRMFEEVSGSIQ [SMC1] | 2.9 ± 0.06 | 2.16 ± 0.052 | 3.02 ± 0.062 | 2.38 ± 0.065
38 | IVDGKLKTEKIFKEINE [FAS1] | 1.76 ± 0.074 | 1.85 ± 0.13 | 1.91 ± 0.091 | 1.91 ± 0.11
39 | MVNTQQPIVTGTSVISM [PRE4] | 2.1 ± 0.26 | 2.69 ± 0.23 | 1.96 ± 0.2 | 1.95 ± 0.14
40 | FVSNMGFDIQKSCEPVS [SIR4] | 2.06 ± 0.066 | 2.05 ± 0.12 | 2.12 ± 0.075 | 1.68 ± 0.24
41 | LADRDEFIQDSAARGLS [ECM29] | 1.55 ± 0.092 | 1.31 ± 0.06 | 2.01 ± 0.064 | 1.2 ± 0.14
42 | AIGYPTLPSVGHTLINN [RPP0] | 3.06 ± 0.21 | 2.65 ± 0.13 |  | 
43 | MNTTLGSIGSRKYSFNY [YAR002W/NUP60] | 1.75 ± 0.06 | 2.29 ± 0.066 | 1.41 ± 0.041 | 1.87 ± 0.095
44 | LGLYVGVDDQILATNSL [YJL039C/NUP192] | 2.64 ± 0.092 | 3.06 ± 0.12 | 1.73 ± 0.16 | 2.3 ± 0.11
45 | LSNIPLLLITHHSWSQS [ARP9] | 2.25 ± 0.075 | 1.6 ± 0.045 | 1.96 ± 0.047 | 1.51 ± 0.073
46 | QQAQSFVGKKNTIGSVH [SSN3] | 3.14 ± 0.1 | 3.12 ± 0.12 | 2.98 ± 0.097 | 3.1 ± 0.081
47 | MFNDLNSMDISMFSGLD [MED2] | 3.18 ± 0.06 | 3.26 ± 0.054 | 3.12 ± 0.052 | 3.15 ± 0.037
48 | IVLGVKDLQENLLVLRG [RPO21] | 1.43 ± 0.078 | 1.35 ± 0.057 | 1.5 ± 0.071 | 2.87 ± 0.059
49 | YLDADVAKLANWFLEVY [YML031W/NDC1] | 2.45 ± 0.081 | 2.63 ± 0.099 | 2.79 ± 0.077 | 2.91 ± 0.12
50 | PGTVLILLAGRFRGKRV [RPL6A] | 1.61 ± 0.066 | 1.83 ± 0.069 | 2.19 ± 0.073 | 1.66 ± 0.11
51 | VSNLMGRNIGHPIIQDK [RPB3] | 3.42 ± 0.079 | 3.43 ± 0.072 | 3.22 ± 0.084 | 3.17 ± 0.053
